Data set [1] in a line: folding stability dG unfold from trypsin proteolysis; higher = more stable. Summed up:
(§1)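 Bayesian fitting of sequencing counts gave K50 for each design. Unfolding free energy followed by setting this against a sequence-predicted unfolded-state K50 and a shared folded-state K50, either per protease or with trypsin and chymotrypsin combined. The designs, under 80 residues and lacking cysteine, were digested in a PA-tagged cDNA display format at 11 threefold-diluted protease concentrations and without protease, and only those with AlphaFold2 dimer inter-PAE above 15 were kept.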

Data set [2] in a line: folding stability dG unfold (combined trypsin and chymotrypsin); higher = more stable. The essentials: as §1
The nature of data set [3]: folding stability dG unfold from chymotrypsin proteolysis; higher = more stable. Summed up: as §1

± gives the half width of the 95% confidence interval.

Regarding “SAGGFWLKNPNGHYIQVNVEVEWEPRRDPDNGKPTWEPKIEINVEVYDPNGEKRPIPEDQAKDLLKKLSAGG [r13_809_TrROS]”, the “folding stability dG unfold” value in data set [1] was 0.604 ± 0.073 kcal/mol; in data set [2], 1.31 ± 0.11 kcal/mol; in data set [3] it was 1.64 ± 0.082 kcal/mol.
As for “SAGGGAAEEAARALIDEAKAALGLSEISEVVLTREGDGVTMTVRFPGKGLVITIDLAAGVVTAVEDVSAGGS [r16_171_JUSTAS]”, the “folding stability dG unfold” value was 2.18 ± 0.034 kcal/mol in data set [1], 2.11 ± 0.035 kcal/mol in data set [2] and 2.018 ± 0.0088 kcal/mol in data set [3].
For the sequence “SAGGGANIEGVEIYRIPDLDKYLVVVPSPAPEGAEITITVRLPNGPFTKTFVAKYRPLPGNRHVFVGSAGGS [r8_195_TrMRF]”, the “folding stability dG unfold” value in data set [1] amounted to 1.23 ± 0.056 kcal/mol; in data set [2], 1.03 ± 0.12 kcal/mol; in data set [3], 0.789 ± 0.15 kcal/mol.
For “SAGGGEIKIEIYRHPDTIMIRVKWDNPQQLKEEIIELFREENGFKPKEVSVQYNPNGYLYIMFEFKPKSAGG [r13_158_TrROS]”, the “folding stability dG unfold” value in data set [1] was found to be 2.59 ± 0.12 kcal/mol; in data set [2] it was 3.64 ± 0.21 kcal/mol; in data set [3], 4.12 ± 0.086 kcal/mol.
Regarding “SAGGGELYIMFKFDFTFWINNGTISFDMYIMIRIPIPPPPVPIELEDDPDGSYKYEYPNGKEHEVPNSAGGS [r16_136_TrROS]”, the “folding stability dG unfold” value in data set [1] worked out at 3.15 ± 0.1 kcal/mol; in data set [2] it was 3.23 ± 0.22 kcal/mol; in data set [3] it was 3.16 ± 0.079 kcal/mol.
For “SAGGGFEEIIEKAIAKAKELFPDTGAVVPITETVYDPVKKKPIVIEVLVEFDKDGKIKKVEILKISELSAGG [r13_770_TrMRF]”, the “folding stability dG unfold” value was determined as 2.86 ± 0.2 kcal/mol in data set [1], 2.09 ± 0.11 kcal/mol in data set [2] and 1.34 ± 0.044 kcal/mol in data set [3].
As to “SAGGGFSVSTGTLTDPVTGKPITLTVTNLPDGVSRVTVTLEDGKTFEFTFPANNPPTPEQVAEAVKAFSAGG [r13_492_TrMRF]”, the “folding stability dG unfold” value in data set [1] came out at 3.64 ± 0.078 kcal/mol; in data set [2], 3.64 ± 0.04 kcal/mol; in data set [3], 3.631 ± 0.024 kcal/mol.
With “SAGGGGSMTIVVPVEVSPETSEEEVRKRAEEIARPIAEELGKKVSIEVSREEDPEGGRRWTATITILSAGGS [r16_279_JUSTAS]”, the entries for the “folding stability dG unfold” value in data set [1], in data set [2] and in data set [3] were 2.88 ± 0.056 kcal/mol, 2.71 ± 0.046 kcal/mol and 2.6 ± 0.017 kcal/mol, respectively.
The corresponding values for “SAGGGGSTPVSSYSYPLPDGSTATITISSKNPDSDIYSFTVTLSDGTTVPLDVPLSESVEEAIARVLTSAGG [r13_470_JUSTAS]” are 2.31 ± 0.086 kcal/mol, 2.27 ± 0.092 kcal/mol and 2.19 ± 0.076 kcal/mol.
Consider “SAGGGHMVNVTLTGSSIEEIKKELEELAKKYGFVINPKKVEKLPGPKYKITLNIKAPDEVVELIKKKSAGGS [r8_357_JUSTAS]”, for which the results for the “folding stability dG unfold” value in data set [1], in data set [2] and in data set [3] were 0.943 ± 0.044 kcal/mol, 1.72 ± 0.13 kcal/mol and 2.16 ± 0.053 kcal/mol, respectively.
The corresponding values for “SAGGGIAEILEIREFEDGVEILILTDDLDDPEIIEELIDEIAEELGLPKEKIRAHIIPADIPPLPDEESAGG [r13_430_TrMRF]” are 1.22 ± 0.061 kcal/mol, 1.04 ± 0.24 kcal/mol and 1.18 ± 0.1 kcal/mol.
The corresponding values for “SAGGGIEREVAPDEVVEIPIVRIEGDVAREETIEIRLPAGARIEPSGDKIRLWFPEEGKVLEIPLTELSAGG [r13_275_TrMRF]” are -0.0241 ± 0.065 kcal/mol, -0.0226 ± 0.096 kcal/mol and -0.079 ± 0.059 kcal/mol.
In the case of “SAGGGITITLPDGSVIEIEPVSTFTNEDGQPVTKIKATLTDPVTGTSVEADIYLFPDGGVKIDLKPGSAGGS [r16_651_TrMRF]”, the “folding stability dG unfold” value in data set [1] was 2.3 ± 0.051 kcal/mol; in data set [2] it was 2.35 ± 0.062 kcal/mol; in data set [3], 2.35 ± 0.031 kcal/mol.
As to “SAGGGKKYRVTLELTLPDGTKLTLEFEFEVVPPAVPKPVVTTSLDDIAEFDPETGTAIDKKNKKPIPLPSAG [r5_807_TrMRF]”, the “folding stability dG unfold” value in data set [1] is 1.5 ± 0.12 kcal/mol; in data set [2] it was 2.66 ± 0.19 kcal/mol; in data set [3] it was 3.1 ± 0.065 kcal/mol.
Turning to “SAGGGKTVVLVTHPDGTPTTITFDPEKPVATITYPDGTTETLPVPPDKTIADLAKALPADYTAVFAPASAGG [r13_696_TrMRF]”, the “folding stability dG unfold” value was -0.338 ± 0.13 kcal/mol in data set [1], 0.419 ± 0.13 kcal/mol in data set [2] and 0.696 ± 0.069 kcal/mol in data set [3].
In the case of “SAGGGLLEELARELGFEAEIEEIPETGILRITLRPEDGSEVEITVKVTRIPGLGEVKLEVLEVKVRPTSAGG [r13_936_TrMRF]”, the “folding stability dG unfold” value is 3.15 ± 0.16 kcal/mol in data set [1], 3.33 ± 0.2 kcal/mol in data set [2] and 3.31 ± 0.052 kcal/mol in data set [3].
As for “SAGGGLTEEQLEEEAREVAERVEKEFAEATGIEPVEILSVEVFPDGTVRITLRFKGKGGLVTYTIPLSAGGS [r16_622_TrMRF]”, the “folding stability dG unfold” value in data set [1] is 3.16 ± 0.096 kcal/mol; in data set [2] it was 3.42 ± 0.12 kcal/mol; in data set [3], 3.58 ± 0.04 kcal/mol.
For “SAGGGMGRIPLYGEERVEEIAAEPDVVSVEEDPETGRTYVYFERPDGYYSFTRDNETGEITEKTPLPSAGGS [r8_251_JUSTAS]”, the “folding stability dG unfold” value in data set [1] was -0.462 ± 0.23 kcal/mol; in data set [2] it was -0.237 ± 0.21 kcal/mol; in data set [3] it was -0.523 ± 0.5 kcal/mol.
“SAGGGMKLTITVTNADGSTTTETLTLGDLEKALEFLESDPTASLASIEIKPVPDTSEVEMNVSLTVPASAGG [r13_796_JUSTAS]”: the entries for the “folding stability dG unfold” value in data set [1], in data set [2] and in data set [3] were 1.29 ± 0.056 kcal/mol, 1.47 ± 0.071 kcal/mol and 1.55 ± 0.035 kcal/mol, respectively.
“SAGGGMMTLVTLEITIPKPPDPKTGKSRPLPLTLEFEVEADDPEALEERVEEELEKIGIPEEARKLLSAGGS [r16_40_JUSTAS]”: the results for the “folding stability dG unfold” value in data set [1], in data set [2] and in data set [3] were 0.471 ± 0.092 kcal/mol, 0.698 ± 0.2 kcal/mol and 0.547 ± 0.16 kcal/mol, respectively.
Consider “SAGGGMNEKVIEIEVTVTAPDGKVTTNPTTVVSNSLEEVKASIKASIPPNWSITVTVLKTKSLKEVLSSAGG [r13_513_JUSTAS]”, for which the “folding stability dG unfold” value stood at 0.667 ± 0.03 kcal/mol in data set [1], 0.659 ± 0.095 kcal/mol in data set [2] and 0.425 ± 0.081 kcal/mol in data set [3].
The like results for “SAGGGMSVSELKKFFPNLKPGATFVLKDPNSDRTGTGTLLSDGTIKVQLPGSEVTVPDDTLVVSISASAGGS [r8_162_JUSTAS]” were, in that order, 0.585 ± 0.043 kcal/mol, 0.321 ± 0.13 kcal/mol and -0.237 ± 0.27 kcal/mol.
In the case of “SAGGGMTPVKKEYVVTLPVPPGMTEEEARELAERAAEELRPELEAKGLAYEVTFELSPEGLVTVTVVASAGG [r13_529_JUSTAS]”, the figures for the “folding stability dG unfold” value in data set [1], in data set [2] and in data set [3] were 2.19 ± 0.042 kcal/mol, 2.31 ± 0.034 kcal/mol and 2.41 ± 0.025 kcal/mol, respectively.
For “SAGGGMTVETTSKETPLPDGSLRRTETITITEPGGKPLTRTTTKIWDPSTGKVLETRPVSNATVVAESSAGG [r13_1008_JUSTAS]”, the “folding stability dG unfold” value in data set [1] is -0.944 ± 0.82 kcal/mol; in data set [2] it was -0.187 ± 0.14 kcal/mol; in data set [3], -0.0787 ± 0.15 kcal/mol.
As to “SAGGGMTVTIEVEGSIKKSIKGISYKDDKEKKESNKNKYLKKTITVTLTAEDDPNAAAAAIAALGLGSAGGS [r16_467_JUSTAS]”, the “folding stability dG unfold” value in data set [1] turned out to be 0.144 ± 0.23 kcal/mol; in data set [2], 0.181 ± 0.25 kcal/mol; in data set [3] it was 0.313 ± 0.21 kcal/mol.
The corresponding values for “SAGGGPEEIRRAAEALAAELAAELGLEVVEVEVEVREDGTVTVRITVRLPDGSKLEITLTLPAGAPLSAGGS [r8_175_TrROS_Hall]” are 2.03 ± 0.05 kcal/mol, 1.65 ± 0.073 kcal/mol and 1.15 ± 0.038 kcal/mol.
With “SAGGGPFGIPFPFPIEDPDRLDLVEGLVAELEEFFRSLGAGPLTAERVGDTTYVVLVPFDGKPIVSGSAGGS [r16_703_TrMRF]”, the “folding stability dG unfold” value amounted to 1.51 ± 0.025 kcal/mol in data set [1], 1.8 ± 0.089 kcal/mol in data set [2] and 1.95 ± 0.066 kcal/mol in data set [3].
On to “SAGGGPLRTVEVELEFETEEEAEKAIKEYLEKLGLPPEKVEVSFVSREERLVEDKIVYRYKFVFTLPSAGGS [r16_240_JUSTAS]”, for which the “folding stability dG unfold” value in data set [1] amounted to 4.09 ± 0.13 kcal/mol; in data set [2] it was 4.98 ± 0.17 kcal/mol; in data set [3], 5.13 ± 0.13 kcal/mol.
Take “SAGGGSAWKVTAENLPADGYVKFPDGTTVPPGTELTVPLSAGYTDIRALDPEGNVVSVELVPLPEPKLSAGG [r13_441_JUSTAS]”: the results for the “folding stability dG unfold” value in data set [1], in data set [2] and in data set [3] were -0.15 ± 0.14 kcal/mol, -0.187 ± 0.18 kcal/mol and -0.274 ± 0.29 kcal/mol, respectively.
On to “SAGGGSDTVPPVPKATITFTLPAESPEEAEAAAEEIARELEEEGGIPATATVTTDPETGTVTVTITLESAGG [r13_517_TrMRF]”, for which the results for the “folding stability dG unfold” value in data set [1], in data set [2] and in data set [3] were 0.971 ± 0.033 kcal/mol, 0.855 ± 0.069 kcal/mol and 0.672 ± 0.059 kcal/mol, respectively.
Take “SAGGGSISISLPAEELKALSPEDVIEVTAPDGTKIKAKPVKKGDTYPVTAEDPNNPKNATEMGTATLPSAGG [r13_745_JUSTAS]”: the entries for the “folding stability dG unfold” value in data set [1], in data set [2] and in data set [3] were 0.0233 ± 0.084 kcal/mol, 0.176 ± 0.19 kcal/mol and 0.4 ± 0.095 kcal/mol, respectively.
Take “SAGGGSISPAIVAALRAAGASLEEIVAYLNEQGYPIASVLGEEEHHHHHHITLLLPETGETVTVELHSAGGS [r8_179_JUSTAS]”: the “folding stability dG unfold” value in data set [1] turned out to be 2.43 ± 0.068 kcal/mol; in data set [2], 2.79 ± 0.096 kcal/mol; in data set [3], 3.029 ± 0.028 kcal/mol.
The like results for “SAGGGSMEVVKEEVSEEVEVLPNGTVLTTKTITYKTPDGKEYTETVLERVDPVTGKREVIEKKTYPSSAGGS [r16_50_JUSTAS]” were, in that order, 1.59 ± 0.12 kcal/mol, 2.4 ± 0.1 kcal/mol and 2.64 ± 0.045 kcal/mol.
For the sequence “SAGGGSMFSTIYDPNSNNSIEAPLLSIREEDGRPTIEYQLPDGTRVTRPLSELGAFTLTGGAGSLTLPSAGG [r13_211_JUSTAS]”, the “folding stability dG unfold” value in data set [1] turned out to be 0.83 ± 0.052 kcal/mol; in data set [2], 0.774 ± 0.075 kcal/mol; in data set [3], 0.552 ± 0.14 kcal/mol.
In the case of “SAGGGSMKTIELTVTNPATGETVTVTLELDPSVSEEEVEARIKETEEAVEKELLAPEPPLAPTPARASAGGS [r16_191_JUSTAS]”, the “folding stability dG unfold” value was -0.465 ± 0.096 kcal/mol in data set [1], 0.765 ± 0.062 kcal/mol in data set [2] and 1.22 ± 0.023 kcal/mol in data set [3].
The like results for “SAGGGSMLIRRRLLLVERIEDGLLTYDIEEEVYLPLPEPEVPVSVERRPDGSLVLTFPDGTRRLLPRSAGGS [r16_136_JUSTAS]” were, in that order, 1.65 ± 0.077 kcal/mol, 2.01 ± 0.13 kcal/mol and 2.39 ± 0.17 kcal/mol.

The values above are taken from the supplement of paper PMC12764529.
